Assay [1] addresses recombinant human Pol δ core dimer (p125/p50) (human) (UniProt P28340).
Assay [2] concerns the target recombinant human Pol δ core+p68 trimer (p125/p50/p68) (human) (UniProt P28340).
In assay [3] the target is recombinant human Pol δ holoenzyme (heterotetramer p125/p50/p68/p12) (human) (UniProt P28340).
Assay [4] deals with recombinant human Pol δ core+p12 trimer (p125/p50/p12) (human) (UniProt P28340).
Chain of recombinant human Pol δ core+p12 trimer (p125/p50/p12) (human) (P28340 whole entry, stated change not applied, chain 1 of 3): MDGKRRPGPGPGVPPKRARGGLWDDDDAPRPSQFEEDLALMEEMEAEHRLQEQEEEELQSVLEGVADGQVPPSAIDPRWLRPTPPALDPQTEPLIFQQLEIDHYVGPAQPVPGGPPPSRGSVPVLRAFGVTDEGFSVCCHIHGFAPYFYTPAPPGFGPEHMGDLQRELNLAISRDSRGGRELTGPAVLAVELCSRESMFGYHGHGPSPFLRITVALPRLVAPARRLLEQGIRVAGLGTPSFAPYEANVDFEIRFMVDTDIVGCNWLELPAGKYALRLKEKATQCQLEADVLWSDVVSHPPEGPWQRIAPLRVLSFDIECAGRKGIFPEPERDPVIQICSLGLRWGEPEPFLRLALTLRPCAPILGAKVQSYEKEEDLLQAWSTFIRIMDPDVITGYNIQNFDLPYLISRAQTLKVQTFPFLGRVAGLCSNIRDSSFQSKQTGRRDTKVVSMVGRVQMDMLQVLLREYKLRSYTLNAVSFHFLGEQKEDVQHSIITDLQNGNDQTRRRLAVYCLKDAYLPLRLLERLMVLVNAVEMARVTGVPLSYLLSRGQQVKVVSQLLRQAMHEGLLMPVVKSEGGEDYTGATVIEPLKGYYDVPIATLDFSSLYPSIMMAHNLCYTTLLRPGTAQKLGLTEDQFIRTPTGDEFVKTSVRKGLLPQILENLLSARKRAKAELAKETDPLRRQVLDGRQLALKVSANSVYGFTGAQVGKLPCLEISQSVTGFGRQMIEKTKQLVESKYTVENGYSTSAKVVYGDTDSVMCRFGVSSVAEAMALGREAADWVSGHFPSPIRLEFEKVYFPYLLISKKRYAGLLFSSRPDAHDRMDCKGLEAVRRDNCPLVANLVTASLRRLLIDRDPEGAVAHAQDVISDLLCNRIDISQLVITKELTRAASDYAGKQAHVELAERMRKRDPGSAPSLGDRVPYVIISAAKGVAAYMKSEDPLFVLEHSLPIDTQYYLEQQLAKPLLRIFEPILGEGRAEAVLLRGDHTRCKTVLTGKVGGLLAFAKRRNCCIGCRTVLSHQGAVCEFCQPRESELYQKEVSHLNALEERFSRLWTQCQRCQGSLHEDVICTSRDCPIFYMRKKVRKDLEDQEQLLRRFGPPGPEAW
Chain of recombinant human Pol δ core+p12 trimer (p125/p50/p12) (human) (P49005 whole entry, stated change not applied, chain 2 of 3, further chain): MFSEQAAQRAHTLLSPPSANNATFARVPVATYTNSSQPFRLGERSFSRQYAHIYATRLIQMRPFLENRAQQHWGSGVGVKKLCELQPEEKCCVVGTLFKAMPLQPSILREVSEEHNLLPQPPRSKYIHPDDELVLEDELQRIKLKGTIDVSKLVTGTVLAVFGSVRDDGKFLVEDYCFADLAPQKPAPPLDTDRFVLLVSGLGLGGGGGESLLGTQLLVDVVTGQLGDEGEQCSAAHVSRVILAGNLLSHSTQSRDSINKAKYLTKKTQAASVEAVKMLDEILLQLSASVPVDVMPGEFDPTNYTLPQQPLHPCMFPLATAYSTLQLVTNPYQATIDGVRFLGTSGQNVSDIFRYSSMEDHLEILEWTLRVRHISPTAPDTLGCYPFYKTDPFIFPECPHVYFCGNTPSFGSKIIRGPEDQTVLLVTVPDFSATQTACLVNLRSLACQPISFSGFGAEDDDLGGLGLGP
Chain of recombinant human Pol δ core+p12 trimer (p125/p50/p12) (human) (Q9HCU8 whole entry, stated change not applied, chain 3 of 3, further chain): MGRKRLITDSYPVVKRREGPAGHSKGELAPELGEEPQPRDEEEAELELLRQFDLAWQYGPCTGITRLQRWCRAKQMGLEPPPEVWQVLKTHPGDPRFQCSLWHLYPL

Chain of recombinant human PCNA (Proliferating Cell Nuclear Antigen) (P12004 whole entry): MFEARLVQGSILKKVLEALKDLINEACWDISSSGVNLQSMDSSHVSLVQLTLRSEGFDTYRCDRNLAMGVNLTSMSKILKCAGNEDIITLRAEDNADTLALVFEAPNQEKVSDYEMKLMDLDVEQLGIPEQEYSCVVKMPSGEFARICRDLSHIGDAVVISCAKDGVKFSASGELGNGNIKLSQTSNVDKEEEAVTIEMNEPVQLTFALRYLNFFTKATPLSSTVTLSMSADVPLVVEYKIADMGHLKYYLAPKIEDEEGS
Chain of recombinant human Pol δ core dimer (p125/p50) (human) (P28340 whole entry, stated change not applied, chain 1 of 2): as the sequence (P28340 whole entry, stated change not applied, chain 1 of 3) above
Chain of recombinant human Pol δ core dimer (p125/p50) (human) (P49005 whole entry, stated change not applied, chain 2 of 2, further chain): as the sequence (P49005 whole entry, stated change not applied, chain 2 of 3, further chain) above
Chain of recombinant human Pol δ core+p68 trimer (p125/p50/p68) (human) (P28340 whole entry, stated change not applied, chain 1 of 3): as the sequence (P28340 whole entry, stated change not applied, chain 1 of 3) above
Chain of recombinant human Pol δ core+p68 trimer (p125/p50/p68) (human) (P49005 whole entry, stated change not applied, chain 2 of 3, further chain): as the sequence (P49005 whole entry, stated change not applied, chain 2 of 3, further chain) above
Chain of recombinant human Pol δ core+p68 trimer (p125/p50/p68) (human) (Q15054 whole entry, stated change not applied, chain 3 of 3, further chain): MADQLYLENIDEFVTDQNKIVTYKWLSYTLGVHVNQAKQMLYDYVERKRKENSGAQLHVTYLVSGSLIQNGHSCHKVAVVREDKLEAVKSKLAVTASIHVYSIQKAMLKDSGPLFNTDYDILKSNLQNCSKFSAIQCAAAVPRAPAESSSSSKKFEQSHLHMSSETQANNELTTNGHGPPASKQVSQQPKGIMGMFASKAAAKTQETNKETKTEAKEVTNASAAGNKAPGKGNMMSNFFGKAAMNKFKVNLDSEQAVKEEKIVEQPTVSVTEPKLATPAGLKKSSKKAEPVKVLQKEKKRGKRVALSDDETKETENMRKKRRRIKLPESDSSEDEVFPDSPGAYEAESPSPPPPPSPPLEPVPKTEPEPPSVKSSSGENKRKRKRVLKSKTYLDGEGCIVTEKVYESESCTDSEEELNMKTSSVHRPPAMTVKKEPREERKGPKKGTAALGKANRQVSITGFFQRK
Chain of recombinant human Pol δ holoenzyme (heterotetramer p125/p50/p68/p12) (human) (P28340 whole entry, stated change not applied, chain 1 of 4): as the sequence (P28340 whole entry, stated change not applied, chain 1 of 3) above
Chain of recombinant human Pol δ holoenzyme (heterotetramer p125/p50/p68/p12) (human) (P49005 whole entry, stated change not applied, chain 2 of 4, further chain): as the sequence (P49005 whole entry, stated change not applied, chain 2 of 3, further chain) above
Chain of recombinant human Pol δ holoenzyme (heterotetramer p125/p50/p68/p12) (human) (Q15054 whole entry, stated change not applied, chain 3 of 4, further chain): as the sequence (Q15054 whole entry, stated change not applied, chain 3 of 3, further chain) above
Chain of recombinant human Pol δ holoenzyme (heterotetramer p125/p50/p68/p12) (human) (Q9HCU8 whole entry, stated change not applied, chain 4 of 4, further chain): as the sequence (Q9HCU8 whole entry, stated change not applied, chain 3 of 3, further chain) above

On to “recombinant human PCNA (Proliferating Cell Nuclear Antigen) (from UniProt P12004 1-261) (natural protein)”, for which the apparent Kd for PCNA: PCNA concentration for half-maximal stimulation of polymerase activity on poly(dA)/oligo(dT), hyperbolic fit in assay [1] was determined as 73 nM trimer; in assay [2], 9.3 nM trimer; in assay [3] it was 7.1 nM trimer; in assay [4] it was 8.7 nM trimer.

The values are drawn from PMC3377666.
